Test results from patent US6333311.

Columns and labels:
human lysozyme (human) [1] = biological target: human lysozyme (human) (UniProt P61626); experiment: solid-phase ligand binding ELISA on hLZ-coated plates; percent of the response with natural hLF
human lysozyme (human) [2] = biological target: human lysozyme (human) (UniProt P61626); experiment: solid-phase ligand binding ELISA on hLZ-coated plates
[3] = biological target: Jurkat cell 105 kD lactoferrin receptor (human); experiment: Scatchard analysis, 125I-labelled protein on whole Jurkat cells
[4] = biological target: HT-29 cells (human colon carcinoma cell line); experiment: Scatchard analysis, 125I-labelled lactoferrin on HT-29 cells; High affinity (nM); the cell wraps into r15 (8^a))
[5] = biological target: Jurkat cell 105 kD lactoferrin receptor (human); experiment: Scatchard analysis, Jurkat cells cultured 24 h with 30 mM sodium chlorate
[6] = biological target: HT-29 cells (human colon carcinoma cell line); experiment: Scatchard analysis, 125I-labelled lactoferrin on HT-29 cells; column Total affinity (µM); high affinity binding lost (--)
[7] = biological target: HT-29 cells (human colon carcinoma cell line); experiment: Scatchard analysis, 125I-labelled lactoferrin on HT-29 cells; High affinity (nM)
[8] = biological target: HT-29 cells (human colon carcinoma cell line); experiment: Scatchard analysis, 125I-labelled lactoferrin on HT-29 cells; column Total affinity (µM); high affinity binding lost (--); one experiment
[9] = biological target: Jurkat cell 105 kD lactoferrin receptor (human); experiment: Scatchard analysis, 125I-labelled protein on whole Jurkat cells (species comparison)
[10] = biological target: Jurkat cell 105 kD lactoferrin receptor (human); experiment: Scatchard analysis, 125I-hLf on Jurkat cells cultured 24 h with 30 mM sodium chlorate
[11] = biological target: Jurkat cell 105 kD lactoferrin receptor (human); experiment: Scatchard analysis, 125I-hLf on Jurkat cells cultured without sodium chlorate

Chain of bovine lactoferrin (P24627 20-708 limits assumed): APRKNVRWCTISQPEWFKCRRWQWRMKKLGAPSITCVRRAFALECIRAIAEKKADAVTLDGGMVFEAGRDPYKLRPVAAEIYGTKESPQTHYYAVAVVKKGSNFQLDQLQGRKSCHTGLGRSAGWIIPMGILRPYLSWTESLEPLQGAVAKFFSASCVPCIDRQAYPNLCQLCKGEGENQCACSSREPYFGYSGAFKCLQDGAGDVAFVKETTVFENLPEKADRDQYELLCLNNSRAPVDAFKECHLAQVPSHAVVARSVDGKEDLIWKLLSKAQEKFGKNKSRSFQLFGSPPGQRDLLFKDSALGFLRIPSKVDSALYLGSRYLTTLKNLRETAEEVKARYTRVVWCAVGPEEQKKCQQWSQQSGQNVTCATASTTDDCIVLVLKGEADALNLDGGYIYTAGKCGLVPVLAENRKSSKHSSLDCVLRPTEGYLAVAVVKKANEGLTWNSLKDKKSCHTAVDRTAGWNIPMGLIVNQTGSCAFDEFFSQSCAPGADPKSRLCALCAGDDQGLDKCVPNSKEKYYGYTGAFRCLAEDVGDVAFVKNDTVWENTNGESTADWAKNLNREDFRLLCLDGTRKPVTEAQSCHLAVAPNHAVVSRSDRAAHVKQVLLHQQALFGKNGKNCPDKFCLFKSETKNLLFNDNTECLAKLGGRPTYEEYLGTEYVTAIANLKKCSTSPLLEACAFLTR

| Substance | Kd [3] | Kd [7] | Kd [9] | other results |
| --- | --- | --- | --- | --- |
| hLF^-4N (from UniProt P02788) (ligand) | 41 nM | – | – | Kd [8]: 700 nM |
| non-modified recombinant human lactoferrin (from UniProt P02788) (ligand) | 81 nM | – | – | – |
| bovine lactoferrin (from UniProt P24627) (ligand) | – | 81 nM | 60 nM | – |
| murine lactoferrin (from UniProt P08071) (ligand) | – | – | 31 nM | – |
| transgenic hLF isolated from milk of a transgenic bovine (from UniProt P02788) (ligand) | – | 88 nM | – | – |

Second part, led by results:

| Kd [3] | Kd [7] | Kd [9] | Substance | other results |
| --- | --- | --- | --- | --- |
| 65 nM | – | – | hLF^-2N (from UniProt P02788) (ligand) | Reactivity (%) (human lysozyme (human) [1]): 37.5%; fold lower affinity than N-terminally intact hLF (human lysozyme (human) [2]): 3 fold lower; Kd [4]: 124 nM |
| 57 nM | – | – | hLF^-3N (from UniProt P02788) (ligand) | Kd [5]: 57.2 nM; Reactivity (%) (human lysozyme (human) [1]): 5.1%; fold lower affinity than N-terminally intact hLF (human lysozyme (human) [2]): 17 fold lower; Kd [6]: 1700 nM |
| – | 66 nM | – | iron-saturated human lactoferrin (from UniProt P02788) (ligand) | – |
| 12.4 nM | – | – | rhLF^-5N (ligand) | Kd [5]: 27.9 nM |
| 69 nM | 74 nM | 60 nM | natural human lactoferrin (from UniProt P02788) (ligand) | Kd [10]: 62.6 nM; Kd [11]: 71.1 nM |
